Source: the supplement of paper PMC9170038

Test system: MS2 coat protein
Assay: apparent KD of MS2 coat protein; higher = weaker reporter binding
Conditions: Eterna round: R107
Method: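 RNA-MaP round R107: designed RNA switches with theophylline, tryptophan, arginine or FMN aptamers are transcribed on-chip within common flanks. They are titrated with SNAP-549-labelled MS2 coat protein in RNA-MaP buffer (100 mM Tris pH 7.5, 80 mM KCl, 4 mM MgCl2), without ligand or with the indicated ligand. Median apparent KD per design.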

[1] = input ligand: theophylline 20 uM
[2] = input ligand: theophylline 2 mM
[3] = input ligand: tryptophan 2.4 mM

| Sequence | apparent KD of MS2 coat protein (input ligand: arginine 13.2 mM) [nM] | apparent KD of MS2 coat protein (input ligand: none) [nM] | apparent KD of MS2 coat protein [1] [nM] | apparent KD of MS2 coat protein [2] [nM] | apparent KD of MS2 coat protein [3] [nM] |
| --- | --- | --- | --- | --- | --- |
| AAGGGUGGGUCUCUAAUCCGUUUGACGGAUACCAGCGAGAGAUAUCGCCCUUGGCAGCCGACGACAUGAGGAUCACCCAUGUAAA [#05 Exclusion-TheophyllineA] | 16.8 | 18.7 | 22.5 | 34.8 | 15.8 |
| AAGGUGAUCCCAGAUACCAGCUUAACAUGAGGAUCACCCAUGUAACGGACGAAAGUCCGGAGCCCUUGGCAGCUGGGUUGCCAAG [SSTheo B #14] | 102 | 266 | 305 | 141 | 90.9 |
| AAUAACAUGAGGAUCACCCAUGUAAAAGAUACCAGAGUGAUGAUCCUCCCUUGGCAGCUUAAAACGCUAUUGGAAACAAUAGCGA [Mat - Same State Theophlline A - Mod of Eli - D5] | 48.8 | – | 179 | – | 74 |
| AAUAACAUGAGGAUCACCCAUGUAAAAGAUACCAGAUGCAUGAUGAUCCCUUGGCAGCUUAAACGCGAUUGGAAACAAUCGCGAA [Mat - Same State Theophlline A - Mod of Eli - D11] | 37.1 | – | 40 | – | 38.3 |
| AAUAACAUGAGGAUCACCCAUGUAACCGAAGGAGCGGCAAUAAAGCCAGGUAGGUCGCGGAAUAACAUGAGGAUCACCCAUGUAA [Exclusion Arginine A] | 55.5 | 138 | 112 | 125 | 94.7 |
| AAUAAUAAGGCGGCCGCCACUAAACAUGAGGAUCACCCAUGUCUCGAGGGCUUGCGUUUGGGAAGUAGGACCGGGCCAAUAAUAA [Exclusion - Tryptophan B (Freestyle 6)] | 12.6 | 17.9 | 18.8 | 20.4 | 16.4 |
| AAUAAUAUCCUCAUGUGAGUCGUACCAUAACGAGGACCGGUACGGCCGCCACUCGAACAUGAGGAUCACCCAUGUAGGUAUGAUA [M'-T'-T-MS2-T'' - Design 7] | 50.6 | – | 120 | 345 | – |
| AAUACAGUGUCGGCCGCCACUGAAACAUGACAUGAGACAUGAGGAUCACCCAUGUACAUAAUAAACAGGACCGGGACCCAUGUAU [Same State Tryptophan B] | 28.9 | – | 42.4 | 42.5 | – |
| AAUAGACAUGAGGAUCACCCAUGUAUGGAAGGAGCGGUGAAUAAACCAGGUAGGUCGCCAGUGUGAGGGUCAUCUAUGUAAUAAA [#18 Exclusion - Arginine A] | 37.6 | 49 | 63.3 | 62.1 | 46.9 |
| AAUAGUCCUCGACAUGAGGAUCACCCAUGUCGAGGACCGGUACGGCCGCCACUCGACAUGAGGAUCACCCAUGUUGAGUGAUAAA [prototype 1] | 7.58 | – | 8.26 | 7.82 | – |
| AAUAGUCCUCGACAUGGGUAUCACCCAUGUCGAGGACCGGUACGGCCGCCACUCGACAUGAGGAUCACCCAUGUUGAGUGAUAAA [prototype 1.1] | 12.2 | 9.57 | 13.7 | 9.31 | 9.09 |
| AAUAUAAGUGUAAUUUUAUGUAUCUCUGAUACCAGACCCUCAUGUGUCCCUUGGCAGCAGUAACAUGAGGAUCACCCAUGUAAAA [JR_Nu_SSTheophyA_Sub023] | 30.7 | – | 103 | – | 86 |
| AAUCUGUCGGGUGAUACCAGCCUCGGCGCAUCUCGCACCGAACAUGAGGAUCACCCAUGUGGCCCUUGGCAGCACAUGACAAAUC [Ermateus] | 113 | – | 767 | – | 654 |
| AAUGGCGUUGGUGAGGCGGUUAAUGGCGAUACCAGCGUGGAAACACGCCCUUGGCAGCGCCAAAACAUGAGGAUCACCCAUGUUA [Olomouc] | 15.8 | – | 23.5 | – | 16.9 |
| AAUGUAUGGCACAUGAGGAUCACCCAUGUGCGAGGACCGGUACGGCCGCCACUCGGUCCUGGGAUCUUACCACUAUACAUUAAUG [XTryp A #21] | 10.2 | – | 14.8 | 11.3 | – |
| AAUUAGAUGUCGGCCGCCACUGAUGUGUCUGUUGCGUCCAGUGUGUACAUGAGGAUCACCCAUGUCAGGACCGGGACUUUAAAUU [Sodigeedar] | 12.4 | – | 13.5 | 12.3 | – |
| AAUUCAGGGUCGGCCGCCACUGGUAUGGCGAGUCCUCGAACUUACAUGAGGAUCACCCAUGUGAACAGGACCGGGACAGCAUGGG [Exclusion Tryptophan B GF 22] | 57.8 | 233 | 256 | 239 | 214 |
| AAUUCCUAACAUGAGGAUCACCCAUGUGAAGGAGCGCCGAAUAAGGCAGGUAGGUCGCACAUGGAACAGCUGCGAAAGAGGAAAA [XArg-A 5 V1&2] | 11.9 | 13.2 | 15.3 | 12.5 | 12.7 |
| AAUUGGGUUGGUGAGGUGGUUGGAGGCGAUACCAGCGUGGAAACACGCCCUUGGCAGCGCCAAAACAUGAGGAUCACCCAUGUUA [Plzen] | 42 | 475 | 365 | 484 | 157 |

| Sequence | apparent KD of MS2 coat protein (input ligand: arginine 13.2 mM) [nM] | apparent KD of MS2 coat protein (input ligand: none) [nM] | apparent KD of MS2 coat protein [1] [nM] | apparent KD of MS2 coat protein [2] [nM] | apparent KD of MS2 coat protein [3] [nM] |
| --- | --- | --- | --- | --- | --- |
| AAUUGGGUUGGUGAGGUGGUUGGAGGCGAUACCAGCGUGGAAACACGCCCUUGGCAGCGCCAGGACAUGAGGAUCACCCAUGUUA [Brno] | 48.9 | 131 | 160 | 448 | 175 |
| AAUUUAUGGUUCUUGAUGUAGUAUCUAUUUCGAGGACCGGUACGGCCGCCACUCGUAAAUUACAUGAGGAUCACCCAUGUUAGCU [JR_ExcTryptoA_Sub011] | 18.8 | – | 27 | 28.8 | – |
| AAUUUUCACGGAAGGAGCGUCACGUAAUUCAUACAUGAGGAUCACCCAUGUUAGUGGUAGAGACAGGUAGGUCGCCGUUAUUUGA [JR_AAArginiB_Sub026] | 14.3 | 16.8 | 35.3 | 20.3 | 21.4 |
| ACACACAUGAGGAUCACCCAUGUCUAUAUACGAGGACCGGUACGGCCGCCACUCGUGAGAUCGCGAGAGACAGCUUUGGGCUAGU [theeternabot_sameState_MS2_Trp_A_37] | 17 | – | 23.9 | 19 | – |
| ACACAUGAGGGAAGGAGCGCCAUGAACACACAUGAGGAUCACCCAUGUUUUUUUUGUGUUUGGCAGGUAGGUCGCCCACAUGAGG [Same State Arginine B 2] | 7.38 | 10.1 | 22.5 | 9.33 | 7.57 |
| ACACGAAGCUGAAGGAGCGUGAUAUAAAUUUUUACAUGAGGAUCACCCAUGUUUCAUCGAUCACAGGUAGGUCGCAGAUGCGUGA [JR_SSArginiB_Sub013] | 15.2 | 14.4 | 16.9 | 16.9 | 14.8 |
| ACAUAGAGAUUAAUCGUGGGCAUACUCGAUACCAGUAUUUUAACCUACCCUUGGCAGCGACAUGAGGAUCACCCAUGUGAGAUGA [XTheo A #9] | 21.2 | – | 25.1 | – | 23 |
| ACAUGAAGAACAGCGGUGGGCGCGCUCGAUACCAGUACUUUGAUAUACCCUUGGCAGCGACAUGAGGAUCACCCAUGUGAGAUGA [XTheo A #2] | 16 | – | 23.9 | – | 18.1 |
| ACAUGAGCAUCAGCCAUGUGUAUGACAUGACGAGGACCGGUACGGCCGCCACUCGACAUGAGGAUCACCCAUGUUGAGGAUCACA [Exclusion - Tryptophan A #1] | 7.95 | – | 11.2 | 11.3 | – |
| ACAUGAGGAUCACCCAUGUAAAUAACGGAAGGAGCGUGCAAAAGCACAGGUAGGUCGCCGAUAUAAAUAUUGGGUAUUAUAUUAU [AstrosExyArgA#2] | 23.9 | 33.6 | 39.3 | 29 | 28.5 |
| ACAUGAGGAUCACCCAUGUAAGUUUCAGAAGGAGCGUGAAUUAUCACAGGUAGGUCGCUGAAGUUUGCAUAUACUUAUAAAUGUA [JR_ExcArginiA_Sub006] | 21 | 22.5 | 26.6 | 26.5 | 19.8 |
| ACAUGAGGAUCACCCAUGUAAUGGCACGAUACCAGCUGAUCCCGUGGCCCUUGGCAGCGUCCGGUGUGGUCCGCCGGGUUGGACG [XXXMULLIN] | 24.4 | – | 38.7 | – | 24.1 |
| ACAUGAGGAUCACCCAUGUACAUGAGGGAAGGAGCGGUACAUGUGCCAGGUAGGUCGCCCAAGAGCAUCAGCCAUGUACAUCAGC [qasmullin] | 43.5 | 131 | 131 | 90 | 80.5 |
| ACAUGAGGAUCACCCAUGUAUGAUGUUCCUCGAGGACCGGUACGGCCGCCACUCGAACGAGUGGCACGCGAGUGCGCACUCGCGU [aXa] | 22.1 | 14.2 | 19.6 | 14.9 | 11.7 |
| ACAUGAGGAUCACCCAUGUAUUACCGGGAAGGAGCGCGUAAGGACGCAGGUAGGUCGCUCGGCGUCGUGCUGGAAAGCACGACGA [#1 Same State - Arginine A Attempt #23 (HarryS)] | 12.9 | 14.1 | 20.7 | 17.9 | 15.1 |
| ACAUGAGGAUCACCCAUGUCACGGCACGAUACCAGCUGAUCCGGUGGCCCUUGGCAGCGUCACGUUUGGUCCCGCGGAUGACACG [klmmullin] | 29.4 | – | 89.6 | – | 65.5 |
| ACAUGAGGAUCACCCAUGUCACGGCACGAUACCAGCUGAUCCGGUGGCCCUUGGCAGCGUGACGUUUGGUCCCGCGGAUGACACG [ppmullin] | 96.5 | – | 142 | – | 137 |
| ACAUGAGGAUCACCCAUGUCUGCCACUGAUACCAGCGGAAGAAAACGCCCUUGGCAGCAGAACAUGAGGAUCACCCAUGUAGGCU [Same State Theophylline A GF29] | 39.6 | – | 166 | – | 140 |
| ACAUGAGGAUCACCCAUGUGCAUCACCCGACGAGGACCGGUACGGCCGCCACUCGGGUAUAUAUUUACAUCGGGUGAUUUUACGU [#24 Tryptophan A Same State] | 29.1 | – | 55.9 | 51.8 | – |
